Results from article PMC8373067, “The RGG domain in the C-terminus of the DEAD box helicases Dbp2 and Ded1 is necessary for G-quadruplex destabilization”.

Tests used:
Oga1 WT [1] = target: T1, Oga1 WT (Schizosaccharomyces pombe, UniProt O42914 1-284); test: EMSA; 10 nM protein, Na+; EMSA: 0.4 nM 32P-oligo (0.2 nM in Fig S4), 50 mM Tris (pH not stated), 50 mM KCl (DNA) or NaCl (RNA), 2 mM MgCl2, 2 mM DTT, 0.25 mg/ml BSA, 10 min at 30 C; details: protein: recombinant, tags: C-terminal poly-His, label: 5'-32P
T1 sequence: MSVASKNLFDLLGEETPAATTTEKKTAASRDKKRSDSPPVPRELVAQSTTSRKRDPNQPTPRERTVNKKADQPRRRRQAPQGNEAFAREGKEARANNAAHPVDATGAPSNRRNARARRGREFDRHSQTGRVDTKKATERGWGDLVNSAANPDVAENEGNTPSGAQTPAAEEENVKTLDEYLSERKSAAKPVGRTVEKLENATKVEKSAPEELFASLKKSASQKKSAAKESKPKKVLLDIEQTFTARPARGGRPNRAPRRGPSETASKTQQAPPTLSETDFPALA

Dbp2 WT [2] = target: T2, Dbp2 WT (Schizosaccharomyces pombe, UniProt P24782 1-550); test: as above; details: protein: recombinant, tags: C-terminal poly-His, label: 5'-32P
T2 sequence (P24782 whole entry): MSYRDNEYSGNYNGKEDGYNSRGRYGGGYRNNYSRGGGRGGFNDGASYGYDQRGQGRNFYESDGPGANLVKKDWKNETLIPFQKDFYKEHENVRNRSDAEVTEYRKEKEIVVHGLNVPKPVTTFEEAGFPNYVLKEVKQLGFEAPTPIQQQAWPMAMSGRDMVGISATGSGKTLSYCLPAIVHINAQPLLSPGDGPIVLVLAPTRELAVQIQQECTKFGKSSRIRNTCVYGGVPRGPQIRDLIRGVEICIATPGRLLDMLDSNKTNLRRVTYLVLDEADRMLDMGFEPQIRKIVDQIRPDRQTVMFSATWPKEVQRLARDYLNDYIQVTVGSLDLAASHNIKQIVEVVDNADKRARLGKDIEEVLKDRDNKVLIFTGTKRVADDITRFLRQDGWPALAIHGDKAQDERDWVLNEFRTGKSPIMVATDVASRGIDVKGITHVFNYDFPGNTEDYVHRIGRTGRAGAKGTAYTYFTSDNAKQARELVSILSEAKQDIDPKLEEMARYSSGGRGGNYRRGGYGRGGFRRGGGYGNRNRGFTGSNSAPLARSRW

Ded1 WT [3] = target: T3, Ded1 WT (Schizosaccharomyces pombe, UniProt O13370 1-636); test: as above; details: protein: recombinant, tags: C-terminal poly-His, label: 5'-32P
T3 sequence (O13370 whole entry): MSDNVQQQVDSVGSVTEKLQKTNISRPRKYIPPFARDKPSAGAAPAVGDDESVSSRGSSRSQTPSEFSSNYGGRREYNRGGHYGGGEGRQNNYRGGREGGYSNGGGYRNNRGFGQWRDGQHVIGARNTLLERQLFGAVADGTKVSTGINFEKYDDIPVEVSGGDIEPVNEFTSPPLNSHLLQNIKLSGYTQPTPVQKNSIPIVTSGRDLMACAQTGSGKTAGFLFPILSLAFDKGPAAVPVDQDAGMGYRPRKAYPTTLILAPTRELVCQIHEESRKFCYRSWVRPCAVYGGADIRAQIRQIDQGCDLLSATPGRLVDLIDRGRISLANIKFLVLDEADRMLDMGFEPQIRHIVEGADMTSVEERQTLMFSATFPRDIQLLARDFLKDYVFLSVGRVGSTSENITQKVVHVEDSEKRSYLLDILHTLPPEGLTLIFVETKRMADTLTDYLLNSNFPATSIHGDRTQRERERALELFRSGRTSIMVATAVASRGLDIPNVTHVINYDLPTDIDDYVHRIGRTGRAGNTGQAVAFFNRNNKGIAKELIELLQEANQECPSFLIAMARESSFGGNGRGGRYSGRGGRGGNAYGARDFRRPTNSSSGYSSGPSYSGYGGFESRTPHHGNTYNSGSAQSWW

Oga1 WT [4] = target: T1, Oga1 WT; test: EMSA; up to 10 nM protein; EMSA: 0.4 nM 32P-oligo (0.2 nM in Fig S4), 50 mM Tris (pH not stated), 50 mM KCl (DNA) or NaCl (RNA), 2 mM MgCl2, 2 mM DTT, 0.25 mg/ml BSA, 10 min at 30 C; details: protein: recombinant; tags: C-terminal poly-His; label: 5'-32P; single strand
Dbp2 WT [5] = target: T2, Dbp2 WT; test: as above; details: protein: recombinant; tags: C-terminal poly-His; label: 5'-32P; single strand
Ded1 WT [6] = target: T3, Ded1 WT; test: as above; details: protein: recombinant; tags: C-terminal poly-His; label: 5'-32P; single strand
Dbp2 WT [7] = target: T2, Dbp2 WT; test: EMSA; K+, 2 mM Mg2+; EMSA: 0.4 nM 32P-oligo (0.2 nM in Fig S4), 50 mM Tris (pH not stated), 50 mM KCl (DNA) or NaCl (RNA), 2 mM MgCl2, 2 mM DTT, 0.25 mg/ml BSA, 10 min at 30 C; details: protein: recombinant; tags: C-terminal poly-His; label: 5'-32P; parallel G4, 5' A10 overhang
Ded1 WT [8] = target: T3, Ded1 WT; test: as above; details: protein: recombinant; tags: C-terminal poly-His; label: 5'-32P; parallel G4, 5' A10 overhang
[9] = parallel G4, 5' U5 and 3' U5 overhangs

B1: 5'-RNA-G4 (10A-G4 RNA) (structured_RNA)
RNA: AAAAAAAAAAGGGGAAGGGUGGGGCAUGUUAUGGG
- binding result (Oga1 WT [1]): binds
- binding result (Dbp2 WT [2]): binds
- binding result (Ded1 WT [3]): binds

B2: 5'-RNA-G4-3' (5U-G4-5U RNA) (structured_RNA)
RNA: UUUUUGGGGAAGGGUGGGGCAUGUUAUGGGUUUUU
- binding result (Oga1 WT [1]; [9]): binds
- binding result (Dbp2 WT [2]; [9]): binds
- binding result (Ded1 WT [3]; [9]): binds

B3: 10A-rDNA scr (ssDNA)
DNA: AAAAAAAAAAGGTGCGAGGTGAGTGTGGAGTGAGG
- binding result (Oga1 WT [4]): no binding
- binding result (Dbp2 WT [5]): no binding
- binding result (Ded1 WT [6]): no binding

B4: 10A-rDNA G4 (structured_DNA)
DNA: AAAAAAAAAAGGGGAAGGGTGGGGCATGTTATGGG
- Kd (Dbp2 WT [7]): 3.84 ± 1.06 nM
- Kd (Ded1 WT [8]): 6.59 ± 0.1 nM
